Experimental data as given in the supplement of paper PMC10126150.
± gives the standard deviation of the averaged measurements.

What follows are sequences tested on ATP (assay: switch fluorescence ratio, 500 uM ATP over buffer (Cy3 cluster intensity, sum of 5 cycles each) (fold (ratio)); higher = stronger signal-on switching upon ATP binding; sequences stand for … in TCGTCGGCAGCGTCAGATGTGTATAAGAGACAGTTTTTTTTTTTTTTTTTTTTTTTTT…TC). Conditions: aptamer strand: ATP DNA aptamer (quencher-CACCTGGGGGAGTATTGCGGAGGAAGG + anchor), 100 nM annealed; ATP concentration: 500 uM.
Method in brief: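 Cy3-labelled switching-strand clusters on a modified Illumina MiSeq flow-cell were annealed to 100 nM quencher-labelled ATP aptamer and imaged first in selection buffer, then after 15 min with 500 uM ATP at 22 °C. NaOH stripping and re-annealing separated each of five buffer/ATP cycles, and clusters outside 100-1000 RFU were excluded. The fluorescence ratio sums target-cycle Cy3 intensity over buffer-cycle Cy3 intensity per cluster and averages it per switch-domain sequence.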
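Note: ATP exposure 15 min at 22 °C before imaging.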

TACCATTTGT and TAATTCTGGT are within error of each other in switch fluorescence ratio: 1 ± 0.044 for the first, 0.965 ± 0.025 for the second.

TTGATGGGAG and GGGGGCTGCG are within error of each other in switch fluorescence ratio: 1.07 ± 0.12 for the first, 1.04 ± 0.051 for the second.

TTATGCATGA and ATGTGAGATA are within error of each other in switch fluorescence ratio: 1 ± 0.047 for the first, 1.02 ± 0.015 for the second.

ATTGTAGGAC and ATTAAGTGTA are within error of each other in switch fluorescence ratio: 1.01 ± 0.036 for the first, 0.98 ± 0.019 for the second.

TGAAGTTGGG and GCACTGGTAT are within error of each other in switch fluorescence ratio: 1.11 ± 0.15 for the first, 1.05 ± 0.024 for the second.

CGTCATTTGG and ATGAGGGATT are within error of each other in switch fluorescence ratio: 0.9769 ± 0.0044 for the first, 0.965 ± 0.011 for the second.

TAACCGGGGG and GATGTGCAGG are within error of each other in switch fluorescence ratio: 1.67 ± 1.2 for the first, 0.9915 ± 0.0084 for the second.

Compared with TTTCCGATGA, TATCGTTGGA is lower in switch fluorescence ratio: 1.08 ± 0.032 for the first, 1.03 ± 0.018 for the second.

TCGATCTACT and GGCAATTCAG are within error of each other in switch fluorescence ratio: 1.06 ± 0.024 for the first, 1.07 ± 0.019 for the second.

TGGGGGTTG and GCCCCTGTTT are the same in switch fluorescence ratio: 1 ± 0.032 for the first, 1 ± 0.023 for the second.

CGATAGGTAG and CGCGGGTTGG are within error of each other in switch fluorescence ratio: 0.994 ± 0.018 for the first, 1.02 ± 0.017 for the second.

Compared with AAGTTTAGTC, ACACTATCAC is higher in switch fluorescence ratio: 1.03 ± 0.034 for the first, 1.21 ± 0.049 for the second.

TAGGATGTCA and TAATCAGGGG are within error of each other in switch fluorescence ratio: 1.01 ± 0.027 for the first, 1.07 ± 0.16 for the second.

First: CCCGGGAAAA
Second: AACAGCAGGC
The switch fluorescence ratio of the first is lower: 0.943 ± 0.03 for the first, 1.16 ± 0.013 for the second.

TTTCTTTGAA and GAGCTAGGCA are within error of each other in switch fluorescence ratio: 0.977 ± 0.018 for the first, 0.958 ± 0.03 for the second.

First: CCGGGGGT
Second: GGGGAACGGG
The switch fluorescence ratio of the first is higher: 1.036 ± 0.0046 for the first, 1 ± 0.027 for the second.

TTCGGGGGTT and AACGGGGACT are within error of each other in switch fluorescence ratio: 1.01 ± 0.051 for the first, 1.05 ± 0.063 for the second.

AAAAATTGTG and CGGTGGGCGC are within error of each other in switch fluorescence ratio: 1.01 ± 0.046 for the first, 0.974 ± 0.091 for the second.

GTCGGGGGGC and GAAGAGTTTG are within error of each other in switch fluorescence ratio: 0.985 ± 0.021 for the first, 0.9776 ± 0.0069 for the second.

First: ATCGAGAGGC
Second: GCCCTATCAT
The switch fluorescence ratio of the first is higher: 1.06 ± 0.047 for the first, 0.981 ± 0.027 for the second.

Going from CTGATTTAGC to GCTCAATCTT, the switch fluorescence ratio falls from 1.05 ± 0.043 to 0.967 ± 0.01.

AGAAAAATGG and TATAGCCGGG are within error of each other in switch fluorescence ratio: 0.998 ± 0.02 for the first, 1 ± 0.069 for the second.

TCCGTATTTT and TTCTTATAGA are within error of each other in switch fluorescence ratio: 1.29 ± 0.41 for the first, 1.0069 ± 1.4e-05 for the second.

ATGGGTCTTT and TGGGGGATTG are within error of each other in switch fluorescence ratio: 0.9811 ± 0.0016 for the first, 0.987 ± 0.031 for the second.

TGGGGGGTGC and GGGCCCTGTT are within error of each other in switch fluorescence ratio: 1.13 ± 0.4 for the first, 1.03 ± 0.021 for the second.

First: TTATGATACG
Second: AGGGCCTCCG
The switch fluorescence ratio of the first is lower: 1.01 ± 0.017 for the first, 1.295 ± 0.0091 for the second.

GGGGGGTGGA and AATTAAGAGG are within error of each other in switch fluorescence ratio: 1.01 ± 0.028 for the first, 1 ± 0.011 for the second.

CATGGGGGGG and TTGGTTTACT are within error of each other in switch fluorescence ratio: 0.982 ± 0.043 for the first, 1.22 ± 0.3 for the second.

Compared with TAGCCGGTCG, ATTGGGGAT is higher in switch fluorescence ratio: 0.9846 ± 0.0023 for the first, 1.02 ± 0.018 for the second.

CTAATTTTGT and TGACTAGGGA are within error of each other in switch fluorescence ratio: 0.995 ± 0.014 for the first, 0.992 ± 0.021 for the second.

GCAGATGGTT and GTGGTTTGGT are within error of each other in switch fluorescence ratio: 1.01 ± 0.015 for the first, 0.979 ± 0.035 for the second.

GCTCGGTTTG and AATTGGTGAA are within error of each other in switch fluorescence ratio: 0.97 ± 0.045 for the first, 1.01 ± 0.014 for the second.

CAAAGAAAGA and AAAGACAGTT are within error of each other in switch fluorescence ratio: 0.991 ± 0.032 for the first, 1.01 ± 0.049 for the second.

GGTGTCAGCT and AGGTTTGGAC are within error of each other in switch fluorescence ratio: 0.967 ± 0.038 for the first, 1.09 ± 0.17 for the second.

CTCTCCTTGT and TGTTTTACTA are within error of each other in switch fluorescence ratio: 1.3 ± 0.38 for the first, 0.986 ± 0.031 for the second.

TCCCCCCCTT and TGGAATTTAA are within error of each other in switch fluorescence ratio: 1.41 ± 0.58 for the first, 0.984 ± 0.017 for the second.

TCGGGGGTTG and ATTTAAGTTG are within error of each other in switch fluorescence ratio: 0.996 ± 0.056 for the first, 0.987 ± 0.015 for the second.

GGGAAGCTTA and CACGTCGGTA are the same in switch fluorescence ratio: 1.008 ± 0.0042 for the first, 1.01 ± 0.015 for the second.

GAATGGTTTC and CAGGGGATTG are within error of each other in switch fluorescence ratio: 0.9947 ± 0.0053 for the first, 1.11 ± 0.14 for the second.

TTCTATGTTT and TTAGATGAAG are within error of each other in switch fluorescence ratio: 0.996 ± 0.0094 for the first, 0.987 ± 0.031 for the second.

TCGGGGGTTA and ATTTAATGAA are within error of each other in switch fluorescence ratio: 1.01 ± 0.023 for the first, 0.982 ± 0.021 for the second.

First: GAGTGGGGAT
Second: ATGTATTATG
The switch fluorescence ratio of the first is higher: 1.02 ± 0.021 for the first, 0.956 ± 0.026 for the second.

GGCTGGTATA and TAGGTGCTGG are within error of each other in switch fluorescence ratio: 0.987 ± 0.031 for the first, 1.04 ± 0.07 for the second.

AATAGTGGTG and TCGTACACGT are within error of each other in switch fluorescence ratio: 1 ± 0.022 for the first, 0.978 ± 0.015 for the second.

TGAGGGGGTA and CGTGACCTGT are within error of each other in switch fluorescence ratio: 0.995 ± 0.033 for the first, 0.996 ± 0.022 for the second.

GGTAGAGTAA and CGCTAGGGTA are within error of each other in switch fluorescence ratio: 1 ± 0.033 for the first, 1.04 ± 0.036 for the second.

First: GGGTGGGCCC
Second: CCTTTTCGAG
The switch fluorescence ratio of the first is lower: 0.995 ± 0.041 for the first, 1.037 ± 0.0025 for the second.

GTTGCGAGGG and CGGTTGGCGA are the same in switch fluorescence ratio: 1.02 ± 0.016 for the first, 1.02 ± 0.011 for the second.

TTCGCAGGTT and ACATAGAAAA are within error of each other in switch fluorescence ratio: 1.05 ± 0.075 for the first, 1.01 ± 0.044 for the second.

AGTAGATTTT and ATTAGTAGGG are within error of each other in switch fluorescence ratio: 0.986 ± 0.04 for the first, 0.9807 ± 0.0041 for the second.
